How the values were obtained:
TE14 cells = assay: ADC assay combining anti-GPC-1 antibody and MMAF binding secondary antibody, TE14 cells; assay type: cell-based; conditions: primary antibody plus MMAF secondary antibody
Experimental: FIG. 1 depicts a schematic diagram of an ADC used in an assay. This Example used a secondary antibody (MORADEC) to the anti-GPC1 antibody made in Example 1, to which an anticancer agent (MMAF) was bound via a linker.
2000 TE14 cells were added to a 96-well plate at 80 μl. The cells were cultured overnight at 37° C. in a 5% CO2 incubator. The next day, 10 μl of an anticancer agent bound secondary antibody and 10 μl of a primary antibody concentrated 10-fold relative to the final concentration was added to each well, so that the total amount was 100 μl. The cells were cultured for 6 days at 37° C. in a 5% CO2 incubator. The cell viability was measured by using a CellTiter-Glo Luminescent Cell Viability Assay reagent to detect the amount of ATP. RPMI1640+10% FBS+1% PS was used as the medium. The final concentrations of the primary antibody were 0, 0.004, 0.0156, 0.0625, 0.25, and 1.0 nM. 2 μg/ml of Fab-aMFc-CL-MMAF (model number: AM202AF-50, Moradec) was used as the secondary antibody.

DU145 cells = assay: ADC assay combining anti-GPC-1 antibody and MMAF binding secondary antibody in DU145 cells; assay type: cell-based; conditions: primary antibody plus MMAF secondary antibody, 3 days
Experimental: 2000 DU145 cells were added to a 96-well plate at 80 μl. The cells were cultured overnight at 37° C. in a 5% CO2 incubator. The next day, 10 μl each of anticancer agent binding secondary antibody (2 μg/ml) and primary antibody concentrated 10-fold relative to the final concentration was added to each well, so that the total amount was 100 μl. The cells were cultured for 3 days at 37° C. in a 5% CO2 incubator. The cell viability was measured by using a CellTiter-Glo Luminescent Cell Viability Assay reagent to detect the amount of ATP. RPMI1640+10% FBS+1% PS was used as the medium. The final concentrations of the primary antibodies were […]. 2 μg/ml of Fab-aMFc-CL-MMAF (model number AM202AF-50, Moradec) was used as the secondary antibody. The EC50 value was analyzed with GraphPad Prism 6. The same experiment was conducted using 4000 MDA-MB231 cells as the control.

- EC50 values against TE14 cells (TE14 cells): excellent EC50 values
- EC50 values against DU145 cells (DU145 cells): excellent EC50 values
B1: clone 01a017: anti-human Glypican-1 antibody, heavy chain SEQ ID NO: 138, light chain SEQ ID NO: 140 (antibody)
heavy: MKHLWFFLLLVAAPRWVLSEVQLQQSGGELVRPGTSVKMSCKAAGYTFTNYWIGWVKQRPGHGLEWIGDLYPGGGYTHYNEKFKGKATLTADTSSSTAYMQLSSLTSEDSAIYYCARERVYFDGSRYFDVWGAGTTVTVSSAKTTAPSVYPLAPVCGDTTGSSVTLGCLVKGYFPEPVTLTWNSGSLSSGVHTFPAVLQSDLYTLSSSVTVTSSTWPSQSITCNVAHPASSTKVDKKIEPRGPTIKPCPPCKCPAPNLLGGPSVFIFPPKIKDVLMISLSPIVTCVVVDVSEDDPDVQISWFVNNVEVHTAQTQTHREDYNSTLRVVSALPIQHQDWMSGKEFKCKVNNKDLPAPIERTISKPKGSVRAPQVYVLPPPEEEMTKKQVTLTCMVTDFMPEDIYVEWTNNGKTELNYKNTEPVLDSDGSYFMYSKLRVEKKNWVERNSYSCSVVHEGLHNHHTTKSFSRTPGK
light: MRLLAQLLGLLMLWVPGSSGSIVMTQTPKFLPVSAGDRVTMTCKASQSVGNNVAWYQQKPGQSPKLLIYYASNRYTGVPDRFTGSGSGTDFTFTISSVQVEDLAVYFCQQHYSSPWTFGGGTKLEIKRADAAPTVSIFPPSSEQLTSGGASVVCFLNNFYPKDINVKWKIDGSERQNGVLNSWTDQDSKDSTYSMSSTLTLTKDEYERHNSYTCEATHKTSTSPIVKSFNRNEC

From patent publication US20200308299A1, “ANTI-GPC-1 ANTIBODY” (National University Corporation Kochi University, priority 2017, published 2020)
